7 molecules from patent US20080311122A1, “Antagonists of Hmgb1 and/or Rage and Methods of Use Thereof” (Medimmune, LLC, priority 2005, published 2008) can be followed below.

“Also recorded” adds a separate entry of the source.

First the molecules themselves.
T1: HMG1 peptides (Homo sapiens, UniProt P09429)
T1 sequence (P09429 91-169 P98L): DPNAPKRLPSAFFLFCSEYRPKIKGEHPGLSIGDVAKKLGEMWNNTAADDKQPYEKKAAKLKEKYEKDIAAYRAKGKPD

T2: HMG1 peptides (Homo sapiens, UniProt P09429)
T2 sequence (P09429 150-183): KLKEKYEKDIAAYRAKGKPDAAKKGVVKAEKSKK

B1: E11: human anti-HMG1 antibody, recognizes HMG1 A-Box; VL/VH aa SEQ ID NO: 24/26 (antibody, listed as Homo sapiens, V domains shown)
VH: EVQLLESGGGLVQPGGSLRLSCAASGFTFSRYQMNWVRQAPGKGLEWVSSISPSGGHTHYADSVKGRFTISRDNSKNTLYLQMNSLRAEDTAVYYCAKDGRQGKISTVDHWGQGTLVTVSS
VL: AQDIQMTQSPGTLSLSPGERATLSCRASQSVRSNFLAWYQQKPGQAPRLLIYGASRRASGIPDRFSGSGFGADFTLSISRLEPEDFAVYYCQQYGSSPNTFGQGSRVEIK
B2: S16: human anti-HMG1 antibody, ATCC PTA-6259; VL/VH aa SEQ ID NO: 13/15 (antibody, listed as Homo sapiens, V domains shown)
VH: EVQLLESGGGLVQPGGSLRLSCAASGFTFSWYSMLWVRQAPGKGLEWVSYISPSGGFTNYADSVKGRFTISRDNSKNTLYLQMNSLRAEDTAVYYCARWDYNSGWYYDHWGQGTLVTVSS
VL: AQDIQMTQSPDTLSLSPGERATLSCRASQSVNSRNLAWYQQKPGQAPRLLIYGASTRATGIPDRFSGSVSGTEFTLTISSLQPDDFATYYCQQYNSYFTFGQGTKLEIK
B3: G20: human anti-HMG1 antibody; VL/VH aa SEQ ID NO: 46/48 (antibody, listed as Homo sapiens, V domains shown)
VH: EVQLLESGGGLVQPGGSLRLSCAASGFTFSWYDMFWVRQAPGKGLEWVSWISPSGGYTKYADSVKGRFTISRDNSKNTLYLQMNSLRAEDTAMYYCARSGLDYYDSSGYLDAFDIWGQGTMVTVSS
VL: AQDIQMTQSPSSVSASVGDRVTITCRASQDVSIWLAWYQQKPGKAPKLLIFGASRLQSGVPSRFSGSRSGADFTLTIDSVQPEDFASYYCQQADSFPLTFGGGTKVEIK
B4: S12: human anti-HMG1 antibody; VL/VH aa SEQ ID NO: 62/64 (antibody, listed as Homo sapiens, V domains shown)
VH: EVQLLESGGGLVQPGGSLRLSCAASGFTFSKYIMHWVRQAPGKGLEWVSGIVPSGGLTEYADSVKGRFTISRDNSKNTLYLQMNSLRAEDTATYYCAKEIFGQFDYWGQGTLVTVSS
VL: AQSALTQPPSVSAAPRQRVTISCSGSTSNIGNNAVTWYQYFPGKAPKLLIYSDNQRPSGVPDRFSGSKSGTSASLAITGLQAEDEADYYCQSYDRGLSVVFGGGTKLTVL
B5: G9: human anti-HMG1 antibody; VL/VH aa SEQ ID NO: 34/36 (antibody, listed as Homo sapiens, V domains shown)
VH: EVQLLESGGGLVQPGGSLRLSCAASGFTFSSYDMFWVRQAPGKGLEWVSRISPSGGYTYYADSVKGRFTISRDNSKNTLYLQMNSLRAEDTAVYYCARLRYFDSRGYAFDIWGQGTMVTVSS
VL: AQDIQMTQSPGTLSLSPGERATLSCRASQSVRSSYLAWYQQKPGQAPRLLIYGASTRATGIPDRFSGSGSGTDFTLTISRLEPEDFAVYYCQQYGTSRWTFGQGTKVEIK
B6: G2: human anti-HMG1 IgG1 from Fab phage display library; VL/VH aa SEQ ID NO: 30/32 (antibody, listed as Homo sapiens, V domains shown)
VH: EVQLLESGGGLVQPGGSLRLSCAASGFTFSWYKMQWVRQAPGKGLEWVSGISPSGGSTAYADSVKGRFTISRDNSKNTLYLQMNSLRAEDTAVYYCAKMGLFNTGNSYVDYWGQGTLVTVSS
VL: AQSELTQPPSVSEAPGQRVTISCSGSTSNIGNNAVIWYQQLPGKAPKLLIYYDDLLPSGVSDRFSGSKSGTSGSLAISGLQSEDEADYYCASWDDNLNGPLFGGGTKLTVL
B7: S10: human anti-HMG1 antibody; VL/VH aa SEQ ID NO: 58/60 (antibody, listed as Homo sapiens, V domains shown)
VH: EVQLLESGGGLVQPGGSLRLSCAASGFTFSWYDMWWVRQAPGKGLEWVSWIVPSGGITAYADSVKGRFTISRDNSKNTLYLQMNSLRAEDTATYYCARGNYGPSPFDYWGQGTLVTVSS
VL: AQDIQMTQSPGTLSLSPGERATLSCRATQSVRKNFLAWYQQKPGQAPRLLIYDASSRATGIPDRFSGSGSGTDFTLTISRLEPEDFAVYYCQQYGNSPIIFGQGTRLEIK

The first test has as its system Tx-HMGB1+LPS stimulated IL-6 release (TLR4 signaling). The experiment in a line: Inhibition of HMG1 mediated enhancement of TLR signaling, Tx-HMGB1+LPS in human PBMCs. The class given is cell-based.
Conditions: not given
As to the method:
Cytokine Release Assays: Human PBMCs were treated with rHMG1 in the presence or absence of Polymyxin B (FIG. 20). Human PBMCs were treated with rHMG1 and Tx-HMGB1 at concentrations up to 4 μg/ml (FIG. 21). ˜16 μg/mL (512 nM) Tx-HMGB1 was incubated with 61.5 EU/mL (6.15 ng/mL; approx. 0.615 nM) LPS overnight at 4° C. The sample was diluted as indicated and added to human PBMCs (FIG. 22). In all assays the cells were incubated overnight at 37° C., 5% CO2 and the supernatants were assayed for cytokine levels by Bioplex assay. When present Polymyxin B was used at 8 U/mL.
Inhibition of HMG1 Mediated Enhancement of TLR Signaling: Human PBMCs were treated with Tx-HMGB1+LPS (as described above) in combination with either the Anti-HMG1 antibody E11, S16 or G4, anti-TLR4 antibody, or isotype control antibodies (R3, IgG2a) and incubated overnight at 37° C., 5% CO2 in the presence of 8 U/mL Polymyxin B. The supernatants were assayed for cytokine levels (FIG. 22, right panel).
Regarding B1, the “inhibition of Tx-HMGB1+LPS induced IL-6 release” value was “reduction in IL-6 release to near background levels; also recorded: block the Tx-HMG1 mediated enhancement of TLR4 signaling; also recorded: can be inhibited”.

Consider B2, for which the “inhibition of Tx-HMGB1+LPS induced IL-6 release” value is listed as “reduction in IL-6 release to near background levels; also recorded: block the Tx-HMG1 mediated enhancement of TLR4 signaling; also recorded: can be inhibited”.

The test system of another test is HMG1 induced TLR4 activation. The test can be described thus: TLR4 activation assay (NF-κB luciferase reporter, 293 cells). The class given is cell-based, human.
Conditions: not given
The protocol: TLR4 Activation Assay: HuTLR4 and CD14 stably expressed 293 cells (Invitrogen) were seeded in a 96 well plate at 2×10^4/well in 100 μl of DMEM with 10% FCS overnight. Cells were then transfected with NF-κB/Luc (Stratagene) luciferase reporter construct as indicated by the kit for 24 hr. A mixture of HMGB1 and anti-HMGB1 was added to cells at 100 μl/well overnight. The luciferase activity was then measured to reflect TLR4 activation (Promega).
Background: A reporter such as luciferase makes a cellular process visible.
Regarding B3, the “block of HMG1 induced TLR4 activation” value is “able to inhibit HMG1 activation of TLR4”.

In the case of B1, the “block of HMG1 induced TLR4 activation” value was “able to inhibit HMG1 activation of TLR4; also recorded: significant ability to block HMG1 induced TLR4 activation”.

Another test deals with T1, HMG1 peptides. The test can be described thus: HMG1 B Box and peptide mapping ELISA. The class given is binding. The conditions noted are these: B Box peptide ELISA. As to the method: (§1) HMG1 B Box and Peptide Mapping: Individual wells of a 96-well immunoplate (EIA/RIA plate, High binding, Costar) were coated with HMG1 B Box peptide amino acids 91-169 (FIG. 5A) or amino acids 150-183 (FIG. 5B) at 10 μg/ml in PBS at 4° C. overnight. The plate was then blocked with 4% milk powder dissolved in PBS at 37° C. for 1 hour. The blocking solution was removed and replaced with human anti-HMG1 antibodies at various concentrations (see FIGS. 5A-B). The plate was then washed (ELX-405 Plate washer, BIO-TEK) and secondary antibody (anti-human IgG-HRP, PIERCE) was added at a final concentration of 1:125,000 at 37° C. for 1 hour. HRP activity was detected with Sureblue HRP substrate (KPL). Plates were read at 450 nm using a Kinetic Microplate Reader (Molecular Devices). To obtain more detailed peptide mapping information, similar ELISA assays were performed using 16 biotinylated overlapping peptides spanning the HMGB1 protein from amino acid 1 to 215 as follows, maxisorp microtiter plate was coated with 2 μg/ml of NeutroAvidin (Pierce) overnight at 4° C. After washing and blocking with 1% BSA in PBS, the biotinylated peptides were individually added into the avidin coated wells and incubated for 30 min at room temperature. The serial diluted antibody G4, S16 and S6 at the initial concentration at 10 μg/ml were then transferred into the wells followed by adding mouse anti human IgG-HRP conjugate (Pierce). Detection was accomplished by adding 50 μl of tetramethylbenzidine (TMB) substrate (KPL) and the absorbance was read at […]. The peptides used were amino acids: 46-63; 61-78; 76-93; 91-108; 106-123; 136-153; 151-168; 166-183; 179-185; 181-198; and 196-215.
For orientation: In an ELISA, binding on a coated surface is turned into a signal by an enzyme label.
B4: the “binding to HMG1 peptide 91-169” value was “bind to HMG1 peptide 91-169”.

Take B5: the “binding to HMG1 peptide 91-169” value is recorded as “do not bind either of the HMG1 B Box peptides”.

Turning to B2, the “binding to HMG1 peptide 91-169” value is “bind to HMG1 peptide 91-169”.

Turning to B6, the “binding to HMG1 peptide 91-169” value is given as “do not bind either of the HMG1 B Box peptides”.

For B7, the “binding to HMG1 peptide 91-169” value is reported as “do not bind either of the HMG1 B Box peptides”.

In a further test the target is T2, HMG1 peptides. The experiment in a line: HMG1 B Box and peptide mapping ELISA. The note with it: B Box peptide ELISA. The class given is binding. As to the method: as §1
As for B4, the “binding to HMG1 peptide 150-183” value was “only S12 binds to HMG1 peptide 150-183”.

In the case of B5, the “binding to HMG1 peptide 150-183” value is listed as “do not bind either of the HMG1 B Box peptides”.

Consider B6, for which the “binding to HMG1 peptide 150-183” value is reported as “do not bind either of the HMG1 B Box peptides”.

As for B7, the “binding to HMG1 peptide 150-183” value is “do not bind either of the HMG1 B Box peptides”.

The next test concerns passive CIA mouse model of arthritis. The experiment in a line: Passive collagen-induced arthritis (CIA) mouse model. Type of test: in vivo. The conditions noted are these: percent protection, isotype control subtracted. The protocol:
Induction of Passive Collagen Induced Arthritis (CIA): To establish an arthritis model six-eight week old male DBA/1J mice (Jackson Labs, Bar Harbor, Me.) were used. Generally 5-8 mice per group are used, On day 0, mice were immunized with 2 mg/mouse of anti-collage mAb cocktail (Chemicon # ECM1100, 10 mg/ml) intravenously, i.v. at tail. Mice were subsequently injected with 50 μg LPS/mouse, i.p. on day 3. Each experiment had several groups of animals as follows: groups A-E in experiment 1, groups G-J in experiment 2 and groups L-N). An additional group of mice (groups F, K and O) were untreated as normal controls.
Monitoring Disease: Beginning at day 0 all animals were observed daily to assess the status of the disease in their paws, which was done by assigning a qualitative clinical score to each of the paws. Every day, each animal has its 4 paws scored according to its state of clinical disease. The scoring is done by two observers, with at least one blinded. In addition, each mouse is weighed, to follow body weight changes, at the same time the paws are scored (see FIGS. 6A and 6D)
The grading scale for the 4 lateral digits of each paw are graded as involved or not involved, i.e., 1 or 0. For example, a maximally involved left rear paw would be scored: ankle=3, midfoot=3, digits=4 (clinical score=10 units) We would repeat this for each paw and sum the scores. […]
As for B2, the “in vivo CIA passive” value is 0%.

On to B6, for which the “in vivo CIA passive” value came to 0%.
